The text below walks through data of patent US20240209076A1 (KODIAK SCIENCES, published 2024).

B1: anti-IL-6 antibody, heavy chain T65W, G66D / light chain M32L, M50D, N52S, M88Q (antibody, human IgG1, V domains shown)
VH: EVQLVESGGGLVQPGGSLRLSCAASGFTFSPFAMSWVRQAPGKGLEWVAKISPGGSWTYYSDTVWDRFTFSLDTSKSTAYLQMNSLRAEDTAVYYCARQLWGYYALDIWGQGTLVTVSS
VL: DIQLTQSPSSLSASVGDRVTITCSASISVSYLYWYQQKPGKAPKLLIYDDSSLASGVPSRFSGSGSGTDFTLTISSLQPEDFATYYCQQWSGYPYTFGQGTKVEIK
notes: Human IgG1
B2: anti-IL-6 antibody, heavy chain T65K, G66D / light chain M32L, M50D, N52S, M88Q (antibody, human IgG1, V domains shown)
VH: B1 VH with W65K
VL: B1 VL
notes: Human IgG1
B3: anti-IL-6 antibody, heavy chain T65R, G66D / light chain M32L, M50D, N52S, M88Q (antibody, human IgG1, V domains shown)
VH: B1 VH with W65R
VL: B1 VL
notes: Human IgG1
B4: anti-IL-6 antibody, heavy chain T65V, G66D / light chain M32L, M50D, N52S, M88Q (antibody, human IgG1, V domains shown)
VH: B1 VH with W65V
VL: B1 VL
notes: Human IgG1
B5: anti-IL-6 antibody, heavy chain T63S, G66D / light chain M32L, M50D, N52S, M88Q (antibody, human IgG1, V domains shown)
VH: B1 VH with T63S, W65T
VL: B1 VL
notes: Human IgG1
B6: anti-IL-6 antibody, heavy chain T63R, G66D / light chain M32L, M50D, N52S, M88Q (antibody, human IgG1, V domains shown)
VH: B1 VH with T63R, W65T
VL: B1 VL
notes: Human IgG1
B7: anti-IL-6 antibody, heavy chain T65D, G66D / light chain M32L, M50D, N52S, M88Q (antibody, human IgG1, V domains shown)
VH: B1 VH with W65D
VL: B1 VL
notes: Human IgG1
B8: anti-IL-6 antibody, heavy chain T63I, G66D / light chain M32L, M50D, N52S, M88Q (antibody, human IgG1, V domains shown)
VH: B1 VH with T63I, W65T
VL: B1 VL
notes: Human IgG1
B9: anti-IL-6 antibody, heavy chain T63F, G66D / light chain M32L, M50D, N52S, M88Q (antibody, human IgG1, V domains shown)
VH: B1 VH with T63F, W65T
VL: B1 VL
notes: Human IgG1
B10: anti-IL-6 antibody, heavy chain T65P, G66D / light chain M32L, M50D, N52S, M88Q (antibody, human IgG1, V domains shown)
VH: B1 VH with W65P
VL: B1 VL
notes: Human IgG1
B11: anti-IL-6 antibody, heavy chain T63G, G66D / light chain M32L, M50D, N52S, M88Q (antibody, human IgG1, V domains shown)
VH: B1 VH with T63G, W65T
VL: B1 VL
notes: Human IgG1
B12: anti-IL-6 antibody, heavy chain T65Y, G66D / light chain M32L, M50D, N52S, M88Q (antibody, human IgG1, V domains shown)
VH: B1 VH with W65Y
VL: B1 VL
notes: Human IgG1
B13: anti-IL-6 antibody, heavy chain T63Y, G66D / light chain M32L, M50D, N52S, M88Q (antibody, human IgG1, V domains shown)
VH: B1 VH with T63Y, W65T
VL: B1 VL
notes: Human IgG1
B14: anti-IL-6 antibody, heavy chain T63L, G66D / light chain M32L, M50D, N52S, M88Q (antibody, human IgG1, V domains shown)
VH: B1 VH with T63L, W65T
VL: B1 VL
notes: Human IgG1
B15: anti-IL-6 antibody, heavy chain T63H, G66D / light chain M32L, M50D, N52S, M88Q (antibody, human IgG1, V domains shown)
VH: B1 VH with T63H, W65T
VL: B1 VL
notes: Human IgG1
B16: anti-IL-6 antibody, heavy chain T65E, G66D / light chain M32L, M50D, N52S, M88Q (antibody, human IgG1, V domains shown)
VH: B1 VH with W65E
VL: B1 VL
notes: Human IgG1
B17: anti-IL-6 antibody, heavy chain T65L, G66D / light chain M32L, M50D, N52S, M88Q (antibody, human IgG1, V domains shown)
VH: B1 VH with W65L
VL: B1 VL
notes: Human IgG1
B18: anti-IL-6 antibody, heavy chain T65A, G66D / light chain M32L, M50D, N52S, M88Q (antibody, human IgG1, V domains shown)
VH: B1 VH with W65A
VL: B1 VL
notes: Human IgG1
B19: anti-IL-6 antibody, heavy chain T65S, G66D / light chain M32L, M50D, N52S, M88Q (antibody, human IgG1, V domains shown)
VH: B1 VH with W65S
VL: B1 VL
notes: Human IgG1
B20: anti-IL-6 antibody, heavy chain T65G, G66D / light chain M32L, M50D, N52S, M88Q (antibody, human IgG1, V domains shown)
VH: B1 VH with W65G
VL: B1 VL
notes: Human IgG1
B21: anti-IL-6 antibody, heavy chain T63V, G66D / light chain M32L, M50D, N52S, M88Q (antibody, human IgG1, V domains shown)
VH: B1 VH with T63V, W65T
VL: B1 VL
notes: Human IgG1
B22: anti-IL-6 antibody, heavy chain T63P, G66D / light chain M32L, M50D, N52S, M88Q (antibody, human IgG1, V domains shown)
VH: B1 VH with T63P, W65T
VL: B1 VL
notes: Human IgG1
B23: anti-IL-6 antibody, heavy chain T63W, G66D / light chain M32L, M50D, N52S, M88Q (antibody, human IgG1, V domains shown)
VH: B1 VH with T63W, W65T
VL: B1 VL
notes: Human IgG1
B24: anti-IL-6 antibody, heavy chain T65F, G66D / light chain M32L, M50D, N52S, M88Q (antibody, human IgG1, V domains shown)
VH: B1 VH with W65F
VL: B1 VL
notes: Human IgG1
B25: anti-IL-6 antibody, heavy chain T65H, G66D / light chain M32L, M50D, N52S, M88Q (antibody, human IgG1, V domains shown)
VH: B1 VH with W65H
VL: B1 VL
notes: Human IgG1
B26: anti-IL-6 Fab, parental molecule (Fab, V domains shown)
VH: B1 VH with W65T, D66G
VL: B1 VL with L32M, D50M, S52N, Q88M
notes: Fab expressed in E. coli TG1, tested as filtered lysate; also called wild-type; parent molecule
B27: anti-IL-6 Fab, heavy chain A49T (Fab, V domains shown)
VH: B1 VH with A49T, W65T, D66G
VL: B1 VL with L32M, D50M, S52N, Q88M
notes: see m39
B28: anti-IL-6 Fab, heavy chain F27S (Fab, V domains shown)
VH: B1 VH with F27S, W65T, D66G
VL: B1 VL with L32M, D50M, S52N, Q88M
notes: see m39
B29: anti-IL-6 Fab, heavy chain D62Q (Fab, V domains shown)
VH: B1 VH with D62Q, W65T, D66G
VL: B1 VL with L32M, D50M, S52N, Q88M
notes: see m39
B30: anti-IL-6 Fab, heavy chain F27P (Fab, V domains shown)
VH: B1 VH with F27P, W65T, D66G
VL: B1 VL with L32M, D50M, S52N, Q88M
notes: see m39
B31: anti-IL-6 Fab, heavy chain F27G (Fab, V domains shown)
VH: B1 VH with F27G, W65T, D66G
VL: B1 VL with L32M, D50M, S52N, Q88M
notes: see m39
B32: anti-IL-6 Fab, heavy chain F27R (Fab, V domains shown)
VH: B1 VH with F27R, W65T, D66G
VL: B1 VL with L32M, D50M, S52N, Q88M
notes: see m39
B33: anti-IL-6 Fab, heavy chain A49S (Fab, V domains shown)
VH: B1 VH with A49S, W65T, D66G
VL: B1 VL with L32M, D50M, S52N, Q88M
notes: see m39

Residue numbers refer to the chain shown, from its start. Numbers in names are those of the source.

Chain of human IL-6 (P05231 30-212 limits assumed): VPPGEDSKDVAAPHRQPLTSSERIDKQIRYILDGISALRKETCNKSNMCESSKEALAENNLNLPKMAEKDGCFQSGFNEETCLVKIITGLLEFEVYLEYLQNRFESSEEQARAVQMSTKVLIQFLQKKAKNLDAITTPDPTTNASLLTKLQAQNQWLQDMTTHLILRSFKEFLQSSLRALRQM
Chain of recombinant human IL-6 (P05231 30-212 limits assumed): as above

One test concerns the target human IL-6 (human, UniProt P05231 30-212). Kind of test: SPR (Biacore), supernatant antibody on Protein A chip, IL-6 flowed, 37 C. Here is the method: Antibodies were captured on a Protein A chip (GE) by injecting 1:20 cell supernatant dilutions at 10 μL/min for 60 seconds. […] The sensor chip was regenerated by a 60 seconds injection of 10 mM Glycine pH 1.7 at the flow rate of 50 μL/min. […] For this setup, 1 μg/mL of purified antibody was injected over a Protein A chip at 10 μL/min for 25 seconds. […] The sensor chip was regenerated by a 60 seconds injection of 10 mM Glycine pH 1.7 at flow rate of 50 μL/min. Data analysis for supernatant and purified samples were performed using BIAevaluation software (GE). All sensorgrams were double reference subtracted and fit using a 1:1 Langmuir binding model.
(In SPR one partner is held on a chip, and binding of the other changes the refractive index at the surface.)
B1: the equilibrium dissociation constant (Kd) came out at 0.322 nM, the off-rate (koff) was 0.000384 s⁻¹ and the kon is 1.19e+06 M⁻¹ s⁻¹.
Molecule B2 had a Kd of 0.356 nM, a koff of 0.000579 s⁻¹ and an on-rate (kon) of 1.63e+06 M⁻¹ s⁻¹.
The like results for B3 were, in that order, 0.327 nM, 0.000532 s⁻¹ and 1.63e+06 M⁻¹ s⁻¹.
In the case of B4, the Kd was found to be 0.281 nM, the koff came to 0.000551 s⁻¹ and the kon was determined as 1.96e+06 M⁻¹ s⁻¹.
The like results for B5 were, in that order, 0.278 nM, 0.000499 s⁻¹ and 1.8e+06 M⁻¹ s⁻¹.
For B6 the same measures were 0.273 nM, 0.000526 s⁻¹ and 1.92e+06 M⁻¹ s⁻¹.
The like results for B7 were, in that order, 0.465 nM, 0.00048 s⁻¹ and 1.03e+06 M⁻¹ s⁻¹.
The molecule B8 gave a dissociation constant (Kd) of 0.288 nM, an off-rate (koff) of 0.000446 s⁻¹ and a kon of 1.55e+06 M⁻¹ s⁻¹.
The like results for B9 were, in that order, 0.274 nM, 0.000459 s⁻¹ and 1.67e+06 M⁻¹ s⁻¹.
For B10 the same measures were 0.601 nM, 0.00108 s⁻¹ and 1.79e+06 M⁻¹ s⁻¹.
For B11 the same measures were 0.261 nM, 0.00045 s⁻¹ and 1.73e+06 M⁻¹ s⁻¹.
Consider B12, for which the dissociation constant Kd was 0.237 nM, the koff stood at 0.000367 s⁻¹ and the kon is 1.55e+06 M⁻¹ s⁻¹.
For B13 the same measures were 0.241 nM, 0.000459 s⁻¹ and 1.91e+06 M⁻¹ s⁻¹.
The like results for B14 were, in that order, 0.283 nM, 0.000454 s⁻¹ and 1.6e+06 M⁻¹ s⁻¹.
For B15 the same measures were 0.28 nM, 0.000481 s⁻¹ and 1.72e+06 M⁻¹ s⁻¹.
Regarding B16, the affinity, expressed as Kd, was 0.279 nM; the off-rate (koff) was 0.000474 s⁻¹; the kon amounted to 1.7e+06 M⁻¹ s⁻¹.
For B17 the same measures were 0.293 nM, 0.000446 s⁻¹ and 1.53e+06 M⁻¹ s⁻¹.
For B18 the same measures were 0.239 nM, 0.000542 s⁻¹ and 2.27e+06 M⁻¹ s⁻¹.
For B19 the same measures were 0.31 nM, 0.000441 s⁻¹ and 1.42e+06 M⁻¹ s⁻¹.
On to B20, for which the equilibrium dissociation constant (Kd) amounted to 0.311 nM, the koff was found to be 0.000477 s⁻¹ and the on-rate (kon) turned out to be 1.53e+06 M⁻¹ s⁻¹.
The like results for B21 were, in that order, 0.274 nM, 0.00043 s⁻¹ and 1.57e+06 M⁻¹ s⁻¹.
With B22, the Kd worked out at 0.246 nM, the koff worked out at 0.000419 s⁻¹ and the kon was determined as 1.7e+06 M⁻¹ s⁻¹.
B23 gave a Kd of 0.286 nM, a koff of 0.000449 s⁻¹ and a kon of 1.57e+06 M⁻¹ s⁻¹.
For B24 the same measures were 0.291 nM, 0.000391 s⁻¹ and 1.34e+06 M⁻¹ s⁻¹.
The like results for B25 were, in that order, 0.297 nM, 0.000423 s⁻¹ and 1.43e+06 M⁻¹ s⁻¹.

The next test has as its target recombinant human IL-6 (human, UniProt P05231 30-212). Kind of test: SPR, IL-6 on CM5 chip, Fab lysate, 25 C. Here is the method: Three ranges of antigen density (100-150 RU, 300-400 RU, 400-600 RU) were obtained by using variable flow times for each chip channel, later blocked with ethanolamine. Supernatants of the 96-well filtered culture lysates were injected at 50 μL/min for 120 seconds. Fitting of dissociation curves (300 seconds) to single exponential decay curve was used for the determination of dissociation rates (koff). Chip surfaces were regenerated with 10 mM Glycine pH 1.7 solution injected at 50 μL/min during 60 seconds after every cycle of sample binding and dissociation.
Consider B26, for which the koff came out at 0.00494 s⁻¹.
On the same count and under the same terms, to B27 belongs 0.00575 s⁻¹.
The same measure, in the same setting: with B28 the figure was 0.00393 s⁻¹; with B29, 0.00434 s⁻¹.
Same read-out and setting: with B30 the figure was 0.00418 s⁻¹.
Turning to B31, the off-rate (koff) was found to be 0.00401 s⁻¹.
On the same count and under the same terms, with B32 the figure was 0.00394 s⁻¹; with B33, 0.0054 s⁻¹.

One may read the Kd as the equilibrium constant for the complex coming apart. Low readings indicate a tighter complex, high ones a looser complex. Usually koff stands for the rate constant with which the complex falls apart. The kon is the second-order rate constant of association. Low readings indicate slower complex formation, high ones faster complex formation.
